From the supplement of paper PMC9170038

System: MS2 coat protein
Assay: apparent KD of MS2 coat protein; designed switch direction (-1 OFF switch, 1 ON switch): -1; higher = weaker reporter binding
Outline: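 Designed RNA switches sharing common flanks were transcribed on Illumina chips by stalled E. coli RNA polymerase. They were titrated with SNAP-549-labelled MS2 coat protein, from 0.7 or 1.5 nM doubling to 3 µM, in Tris-HCl pH 7.5 buffer with KCl, MgCl2, BSA, DTT, tRNA and Tween-20. Titrations ran without input, with 200 uM small-molecule ligand, or with an oligonucleotide input. The apparent KD of each design is the median over its clusters, after curve-fitting of normalised cluster fluorescence.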

[1] = Eterna round: R95, input ligand: FMN 200 uM
[2] = Eterna round: R95, input ligand: microRNA oligo, concentration not stated
[3] = Eterna round: R95, input ligand: none
[4] = input ligand: microRNA oligo, concentration not stated

| Sequence | apparent KD of MS2 coat protein (input ligand: FMN 200 uM) | apparent KD of MS2 coat protein (input ligand: none) | apparent KD of MS2 coat protein [2] | further results |
| --- | --- | --- | --- | --- |
| GUACACGGCUAGGAUAUCAUUCCUUGCGACCCUUGAGAAGGAGCCACAUGAGGAUCACCCAUGUCAUAUGCAGA [Eternabot (Original) Solution 38] (Eterna round: R97, puzzle: Exclusion 6) | 0.0375 µM | 0.0332 µM | – | – |
| AUUUGGUCAGGAUAUUGUUAGUUUAGUUGUUUGUAUUAGUUCGAGAAGGGACAUGAGGAUCACCCAUGUGAUUU [Ex4 #75] (Eterna round: R97, puzzle: Exclusion 4) | 0.0871 µM | 0.1 µM | – | – |
| UACAAGCUUUUAAGAUCCCACAUGAGGAUCACCCAUGUGCUCGUCUUGUAACGUACUGUGACGAAAGUCACGGUACG [JL TOV1 3.23] (Eterna round: R97, puzzle: Sensor, turn-off variant 1) | 0.0267 µM | 0.0275 µM | – | – |
| AGUAGUAGUUUCCGUUCUUACAUGAGGAUCACCCAUGUUUCUUGACGUGCACGCGAUGCUCGUCAGACUACCAGAUG [salish99_TOv1_r3_056] (puzzle: Sensor v3, turn-off variant 1) | – | – | 0.0513 µM | apparent KD of MS2 coat protein [1]: 0.0393 µM; apparent KD of MS2 coat protein [3]: 0.0569 µM |
| GGCGAAGUAGGAUAUACAUGAGGAUCACCCAUGUAACCUGAUGGCGUAGGUCUUCUAUGUAGAAGGGCUGCGCC [jl-ex3-4.38 ViennaUCT mod] (Eterna round: R97, puzzle: Exclusion 3) | 0.016 µM | 0.0156 µM | – | – |
| UUAUUAUAUGUAGGAUAUGCAUAUUAUUAUUAUGCAGAAGGACAUGAGGAUCACCCAUGUAUAUUAUUAUUAUAUAUUGUAUAU [Title] (Eterna round: R96, puzzle: Exclusion NG 1) | – | – | – | apparent KD of MS2 coat protein [4]: 0.0232 µM |
| CCAUAUAGGCGAGGAUAUACGCACCACUAACUAGUAGAAGGCGCACAUGAGGAUCACCCAUGUGAUUUCUCAAUAUUAUACAUC [Prohibition 72 - Jieux - Exclusion NG 1] (Eterna round: R96, puzzle: Exclusion NG 1) | 0.174 µM | 0.157 µM | – | apparent KD of MS2 coat protein [4]: 0.107 µM |
| CCUCUGUUAGGAUAUCAAACACUAUCUGCUCCAGAGUUAAGUGAGAAGGGACAUGAGGAUCACCCAUGUAAAAU [Isreusraar] (puzzle: Exclusion 4) | – | – | 0.0262 µM | – |
| CCGGAAAUAGAGGAUAUAGUACUGGAUACAGUACUAGAAGGCUAUACAUGAGGAUCACCCAUGUGUCCUACCGG [Fiskers Ex 6 - 62] (puzzle: Exclusion 6) | – | – | 0.0139 µM | – |
| GGAUCGAAAGUGAGGAUAUACCACUGGAUACAGUGGUAGAAGGCACAUGAGGAUCACCCAUGUCUCUACGAUCC [Fiskers BMX 4 - 42] (puzzle: Brourd's mod of Exclusion 4) | – | – | 0.013 µM | apparent KD of MS2 coat protein [1]: 0.0399 µM; apparent KD of MS2 coat protein [3]: 0.015 µM |
| UUCCUACAUGAGGAUCACCCAUGUCAGGAUAUAUAAAACGCUCAGAUAAAAGAGCAAGAUAGAAGGGAUUGGGA [Aquis] (Eterna round: R97, puzzle: Exclusion 1) | 0.0145 µM | 0.0151 µM | – | – |
| UAUUAGCAAGCCAGAUCCCACAUGAGGAUCACCCAUGUGCUCGUCUUAUAAGGUACUGUGACGAAAGUCACGGUACC [Sensor 3, v1 - 93] (puzzle: Sensor v3, turn-off variant 1) | – | – | 1.12 µM | apparent KD of MS2 coat protein [1]: 0.137 µM; apparent KD of MS2 coat protein [3]: 0.184 µM |
| GCAGUAACAUGAGGAUCACCCAUGUGGAACUCGUGAAUAAGCGAGGAUAUCUCAAGAUAUCAAAGAGAGAAGGCGUACACUGCA [Qulege] (Eterna round: R96, puzzle: Exclusion NG 3) | 0.49 µM | 0.142 µM | – | apparent KD of MS2 coat protein [4]: 0.0961 µM |
| CCGAAUAUGCAGGAUAUCGUAUAGGAAACUAUACGAGAAGGGUAAACAUGAGGAUCACCCAUGUUCCUUAACGG [Mat - Exclusion 6 - Eli Mod - D81] (puzzle: Exclusion 6) | – | – | 0.0203 µM | – |
| GCAGGUCAAGGAUAUACAUGAGGAUCACCCAUGUGAUUAGCAGUCCUCGGACUGCAAUGUAGAAGGUGACCUGC [E3/2-C2] (Eterna round: R97, puzzle: Exclusion 3) | 2.14 µM | 0.329 µM | – | – |
| GUCUGAGCAGGAUAUACAUGAGGAUCACCCAUGUUGGUUCAGCGACGAUAGUCGCAAUGUAGAAGGGCUCAGAC [E3/9-D1] (Eterna round: R97, puzzle: Exclusion 3) | 0.0735 µM | 0.258 µM | – | – |
| AUGUGACAUGAGGAUCACCCAUGUCAGGAUAUUUCCAAAAUAAAAUAAAACCGCGUGGAAAGAAGGGACGUGGC [EX1 A.4] (Eterna round: R97, puzzle: Exclusion 1) | 0.0274 µM | 0.0219 µM | – | – |
| UAGAUGGGAGGAUAUGCGUAGAUACGGAUUCGUGUAGUGCUACAUGAGGAUCACCCAUGUAGAAGGCCCGUCUU [JL-ex2-2.28 Mayanne mod] (puzzle: Exclusion 2) | – | – | 0.0139 µM | – |
| AAACACCAAGGAUAUACAUGAGGAUCACCCAUGUGGUCCGGCACGGGUCUCGAUUCGAGUAGAAGGUGGAUGGG [Eternabot (L1) Solution 80] (Eterna round: R97, puzzle: Exclusion 3) | 0.0567 µM | 0.0765 µM | – | – |
| CCAGCUCGUGUUAGGAUAUCCAAGCUGCGGCUGGUGGAGAAGGGACAUGAGGAUCACCCAUGUAAUAAAGAAAA [On] (puzzle: Brourd's mod of Exclusion 4) | – | – | 0.0214 µM | – |
| UUUUUCAGGCCAGAUCCUCACAUGAGGAUCACCCAUGUGCUCGUCUGUUUUCGCUCUUUCUUUUUUUUGUUUGUGCU [Level Boss var2-19] (puzzle: Sensor v3, turn-off variant 1) | – | – | 0.0275 µM | apparent KD of MS2 coat protein [1]: 0.181 µM; apparent KD of MS2 coat protein [3]: 0.312 µM |
| CGGUGCUGAGGAUAUACAUGAGGAUCACCCAUGUGUUCCAGCUAGCGUACUGGCAGGUGUAGAAGGCGGUACUG [JL-ex3-3.41 Brourd mod] (puzzle: Exclusion 3) | – | – | 0.0187 µM | apparent KD of MS2 coat protein [1]: 0.0687 µM; apparent KD of MS2 coat protein [3]: 0.0201 µM |
| CACACGUAAGGAUAUACAACGGAAACGGGCGCGCGGGCCUCACAUGAGGAUCACCCAUGUAGAAGGUGCACGGG [Eternabot (Original) Solution 18] (Eterna round: R97, puzzle: Exclusion 2) | 0.0417 µM | 0.0503 µM | – | – |
| UUUUGGCAGGCUAUUAUUAACAUGAGGAUCACCCAUGUGCAUCCAAAAUUACUUUUAGAUCUUGCUCGUCUUAUAUA [JR_STOV1_Sub086] (Eterna round: R97, puzzle: Sensor, turn-off variant 1) | 0.379 µM | 0.684 µM | – | – |
| CGAUAAAGCUGAGGAUAUGAGAAUAGAAAGAAAUCAGAAGGCAGACAUGAGGAUCACCCAUGUGAGUUCUCGAGAUUAGAUAUU [Prohibition 47 - Jieux - Exclusion NG 1] (Eterna round: R96, puzzle: Exclusion NG 1) | – | – | – | apparent KD of MS2 coat protein [4]: 0.0222 µM |
| AACUCCUCAGGAUAUCUGAAAAUGGACAUGAGGAUCACCCAUGUGAAAGUCACAUCCGGAGGAGAAGGGAGGAGAA [Diororlera] (Eterna round: R97, puzzle: Exclusion 5) | 0.0446 µM | 0.016 µM | – | – |
